According to patent publication US20240076389A1 (NATIONAL RESEARCH COUNCIL OF CANADA, published 2024):

Legend:
[1] = target: T1, human AXL expressed on the cell surface of tumor cell lines (human, UniProt P30530 26-894); assay: FACS on NCI-H292 cells, apparent Kd, human Fc format
T1 construct: whole, on cells; also called cell surface-expressed AXL; cell-based AXL
T1 sequence (looked up): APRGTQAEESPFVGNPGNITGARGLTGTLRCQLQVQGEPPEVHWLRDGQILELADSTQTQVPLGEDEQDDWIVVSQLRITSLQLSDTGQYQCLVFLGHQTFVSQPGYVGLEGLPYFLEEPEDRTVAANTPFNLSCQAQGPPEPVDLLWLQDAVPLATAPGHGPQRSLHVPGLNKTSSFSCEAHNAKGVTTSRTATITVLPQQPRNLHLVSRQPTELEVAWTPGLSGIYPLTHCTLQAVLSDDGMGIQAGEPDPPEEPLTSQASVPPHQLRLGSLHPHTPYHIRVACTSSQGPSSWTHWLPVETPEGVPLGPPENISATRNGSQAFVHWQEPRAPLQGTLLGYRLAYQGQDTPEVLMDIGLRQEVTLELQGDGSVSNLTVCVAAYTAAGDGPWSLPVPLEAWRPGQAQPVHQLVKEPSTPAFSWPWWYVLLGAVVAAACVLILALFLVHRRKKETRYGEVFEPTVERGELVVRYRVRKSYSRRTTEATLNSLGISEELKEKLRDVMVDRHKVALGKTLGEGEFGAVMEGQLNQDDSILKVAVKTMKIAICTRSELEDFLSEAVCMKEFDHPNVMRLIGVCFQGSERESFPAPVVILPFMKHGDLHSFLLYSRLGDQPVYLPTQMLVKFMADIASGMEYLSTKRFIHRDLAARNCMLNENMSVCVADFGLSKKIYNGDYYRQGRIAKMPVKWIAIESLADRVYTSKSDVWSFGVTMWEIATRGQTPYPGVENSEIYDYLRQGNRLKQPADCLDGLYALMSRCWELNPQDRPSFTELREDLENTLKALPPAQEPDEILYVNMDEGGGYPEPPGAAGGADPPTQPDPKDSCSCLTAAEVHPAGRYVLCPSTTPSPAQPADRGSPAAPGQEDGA
Procedure: FACS binding assay. Adherent cells were dissociated with non-enzymatic Sigma Cell Dissociation Solution (Cat. No. C5789). Cells suspensions were added to polypropylene, V-bottom 96-well plates and incubated for 2 hours on ice with primary antibodies at concentrations ranging from 100 nM to 0.001 nM or at a single dose of 100 nM (for the non-specific control). After incubation and washes, cells were incubated with fluorescently labeled secondary antibody (Alexa Fluor® 488 anti-human IgG from Jackson Cat. No 709-546-098) for 1 hour on ice, then washed. Cell viability was determined using Fixable viability dye 450 (20 min on ice). Stained cells were fixed in 1% formaldehyde at 4° C. and stored at 4° C. until acquisition which was performed the next day.
Binding of recombinant chimeric Abs to three cell lines was assessed by FACS as described above. The apparent Bmax and Kd determination is shown below in Table 14.

[2] = target: T2, recombinant cynomolgus AXL extracellular domain (cynomolgus); assay: SPR Biacore T200, mAb captured on anti-Fc, AXL ECD flowed, single-cycle kinetics
T2 construct: range 1-449; also called Cyno AXL; cyno AXL ECD
Procedure: (§1) Surface plasmon resonance. For murine mAbs, binding to human and cynomolgus AXL ECD was assessed using a Biacore T200 instrument. Briefly, either anti-mouse or anti-human Fc antibody was immobilized on a research-grade CM5 series S sensor chip using amine coupling in acetate buffer. Murine or recombinant chimeric murine-human mAbs (mouse VH/VL; human constant regions) were captured, then recombinant human or cyno AXL ECD was flowed over the surface at different concentration ranges (0.1-500 nM) depending on the antibody. The running buffer was PBS/Tween-20 and the flow rate 100 uL/min. All binding studies were performed at 25° C. Surfaces were regenerated using 10 mM glycine, pH 1.5.

[3] = target: T3, recombinant human AXL extracellular domain, C-terminally His8-tagged (rhAXL-ECD) (human, UniProt P30530 26-451); assay: as above
T3 construct: Made in CHO cells; also called (rh)AXL-ECD His8; human AXL ECD
T3 sequence: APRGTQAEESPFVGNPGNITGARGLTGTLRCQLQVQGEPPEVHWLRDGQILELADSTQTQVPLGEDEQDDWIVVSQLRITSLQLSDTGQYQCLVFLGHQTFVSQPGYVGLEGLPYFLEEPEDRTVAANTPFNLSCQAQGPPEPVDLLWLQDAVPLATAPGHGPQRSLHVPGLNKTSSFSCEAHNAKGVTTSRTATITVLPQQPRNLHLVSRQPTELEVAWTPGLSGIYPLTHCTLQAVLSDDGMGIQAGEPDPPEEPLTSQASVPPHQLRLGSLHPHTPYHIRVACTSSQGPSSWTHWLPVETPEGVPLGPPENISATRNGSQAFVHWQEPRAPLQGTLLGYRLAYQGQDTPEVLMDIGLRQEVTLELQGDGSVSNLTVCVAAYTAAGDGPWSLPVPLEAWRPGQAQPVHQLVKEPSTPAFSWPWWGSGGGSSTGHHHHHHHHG
Procedure: as §1

B1: NRC-sdAb001-Fc (VHH-human IgG1 Fc fusion) (Fc fusion)
chain: QVKLEESGGGLVQAGGSLRLSCTASASISSFDIMGWYRQAPGKQRELVAAITTLDIANYRDSVKGRFTISRDNAKNTVYLQMDSLKPEDTARYHCAAFQSDQNYWGQGTQVTVSS
notes: VHH fused N-terminally to human IgG1 Fc, made in HEK293 cells; also called NRC-sdAb0001-Fc; NRC-sdAb001-hIgG1; not shown: human IgG1 Fc
[1]
  Kd: 0.105 nM

B2: hFC-F107-10G1 (antibody, human IgG1, kappa, V domains shown)
VH: EVNLVESGGGVVKPGASLKLSCEASGFTFSNYGMSWVRQTSDKRLEWVASISGGGGRTYYLDNVKGRFIISRENAKNTLYLQMSSLKSEDTALFYCARGARASYFAMDYWGQGSSVTVSS
VL: VIVMTQSHKFMSTSVGDRVSITCKASQDVTTAVAWYQQKPGQSPKLLIYWASTRHTGVPDRFTGSGSGTDYSLTISNVQTEDLAFYYCQQHFTTPLTFGAGTKLELKR
notes: Chimeric mAb, human IgG1 / human kappa constant regions; also called mAb F107-10G1
[2]
  Kd: 0.5 nM
  koff: 0.00043 s⁻¹
  kon: 820000 M⁻¹ s⁻¹
[3]
  Kd: 0.5 nM
  kon: 1.1e+06 M⁻¹ s⁻¹
